Target: EWS low-complexity domain (EWS^LCD, EWS 1-264) (human) (UniProt Q01844)
Test: co-sedimentation

Sequence of EWS low-complexity domain (EWS^LCD, EWS 1-264) (human) (Q01844 1-264, one chain of several): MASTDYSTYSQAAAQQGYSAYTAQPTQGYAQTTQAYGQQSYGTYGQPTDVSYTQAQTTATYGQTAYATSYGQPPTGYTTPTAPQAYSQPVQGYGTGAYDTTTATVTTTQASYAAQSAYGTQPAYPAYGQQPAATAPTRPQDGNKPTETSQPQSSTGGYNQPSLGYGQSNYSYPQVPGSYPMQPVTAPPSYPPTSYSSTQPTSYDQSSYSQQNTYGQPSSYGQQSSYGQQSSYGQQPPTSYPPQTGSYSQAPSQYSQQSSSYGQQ

percent of total FLI1^DBD in the pellet fraction: 55%
Substance: FLI1 DNA-binding domain (FLI1^DBD) (domain or fragment)

From paper doi:10.1101/2022.06.04.494830
